US20130203609A1 (BOARD OF TRUSTEES OF NORTHERN ILLINOIS UNIVERSITY, published 2013)

What was measured:
[1] = biological target: T1, bovine pancreatic RNase A (bovine, UniProt P61823 27-150); test: competitive phage ELISA without metals: VHH phage, serially diluted soluble RNase A (the varied competitor), RNase A-coated wells [panel A]
T1 construct: mature; Bought purified protein; The residue numbers K61 and T70, and the missing residues 16-22, fit the mature numbering; It was coated on plates in the ELISAs and biotinylated for the phage selections
T1 sequence (looked up): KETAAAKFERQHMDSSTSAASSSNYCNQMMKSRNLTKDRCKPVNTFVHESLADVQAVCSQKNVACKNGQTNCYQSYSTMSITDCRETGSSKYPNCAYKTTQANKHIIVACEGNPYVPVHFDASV
Description: (§1) Competitive Phage ELISA: Competitive phage ELISA's were performed as described by DeLano and Cunningham (DeLano and Cunningham 2004). Briefly, the concentration of phage needed to produce a 60% saturation signal was determined by running a phage ELISA of serially diluted phage stocks. This fixed amount of phage was then added to serially diluted RNase A and incubated for one hour at room temperature. The well contents of that plate were then transferred to a washed and blocked RNase A coated Maxisorp microtiter plate and incubated 15 minutes at room temperature. The plates were then treated as described above to determine the […] absorbance. The IC50 values were then determined using Origin Labs using the following relationship: […]

[2] = biological target: T1, bovine pancreatic RNase A; test: competitive phage ELISA with 1 mM metals: VHH phage, serially diluted soluble RNase A (the varied competitor), RNase A-coated wells [panel A]
Description: as §1

[3] = biological target: T1, bovine pancreatic RNase A; test: ITC, 25 C; no nickel
Description: (§2) The binding parameters (K, ΔH°, ΔS°, and n) were determined using the single site binding model using the ITC add-in in Origin version 7 (MicroCal LLC). All titrations indicated a 1:1 interaction with observed stoichiometries equal to 1.0 (within 5%).
(§3) ITC experiments were performed using a MicroCal VP-ITC (MicroCal, LLC, Northampton, Mass.). All experiments were performed at 25° C. Proteins were dialyzed against the desired experimental buffer, which included PBS (20 mM NaPhosphate, 150 mM NaCl pH 7.4), TBS (20 mM Tris-HCl, 150 mM NaCl pH 7.4) and TBS-E (20 mM Tris, 150 mM NaCl, 1 mM EDTA, pH 7.4). For direct titration of NiCl₂ into the VHHmetal variant, concentrations were 2 mM and 200 μM for NiCl₂ and VHH, respectively. Based on the observed binding constant, this corresponds to a “cvalue” of 6.7, which is within the commonly acceptable range for the accurate determination of binding thermodynamics (Tellinghuisen, 2008; Wiseman et al. 1989). For competitive titrations, nickel was included in TBS without EDTA at concentrations ranging from 0-10 mM. Competitive VHH/RNase A titration experiments with a “c” value greater than 10 included protein concentrations ranging from 30 μM to 205 μM. Conditions included a 10-fold higher concentration of titrant (VHH). […] These experiments included using a 100-fold higher concentration of titrant (RNase A) relative to VHH. RNase A concentrations were between 150 μM and 800 μM. Extinction coefficients were determined using values determined by the methods described by Pace, et. al. (1995). […] For nickel/VHH titrations, the titrant nickel was dissolved in the appropriate dialysis buffer at a 10× concentration of the VHH. Experiments typically included 27, 10 μL injections with a 240 second delay between each injection. Dilution titrations indicated the absence of significant heats of dilution, consequently, no background dilution heat subtractions were necessary. The binding parameters (K, ΔH°, ΔS°, and n) were determined using the single site binding model using the ITC add-in in Origin version 7 (MicroCal LLC).

[4] = biological target: T1, bovine pancreatic RNase A; test: ITC, 25 C; RNase A binding with 1 mM nickel (competitive)
Description: as §2, §3

[5] = biological target: T1, bovine pancreatic RNase A; test: ITC, 25 C; RNase A binding with 10 mM nickel (competitive)
Description: as §2, §3

[6] = biological target: T1, bovine pancreatic RNase A; test: ITC, 25 C, pH 7.4; no nickel
Description: as §2, §3

[7] = biological target: T1, bovine pancreatic RNase A; test: ITC, 25 C; RNase A binding with 1 µM nickel (competitive)
Description: as §2, §3

[8] = biological target: T1, bovine pancreatic RNase A; test: ITC, 25 C, no metal
Description: ITC experiments were performed using a MicroCal VP-ITC (MicroCal, LLC, Northampton, Mass.). All experiments were performed at 25° C. Proteins were dialyzed against the desired experimental buffer, which included PBS (20 mM NaPhosphate, 150 mM NaCl pH 7.4), TBS (20 mM Tris-HCl, 150 mM NaCl pH 7.4) and TBS-E (20 mM Tris, 150 mM NaCl, 1 mM EDTA, pH 7.4). For direct titration of NiCl₂ into the VHH-metal variant, concentrations were 2 mM and 200 μM for NiCl2 and VHH, respectively. Based on the observed binding constant, this corresponds to a “c-value” of 6.7, which is within the commonly acceptable range for the accurate determination of binding thermodynamics. For competitive titrations, nickel was included in TBS without EDTA at concentrations ranging from 0-10 mM. Competitive VHH/RNase A titration experiments with a “c” value greater than 10 included protein concentrations ranging from 30 μM to 205 μM. Conditions included a 10-fold higher concentration of titrant (VHH). […] These experiments included using a 100-fold higher concentration of titrant (RNase A) relative to VHH. RNase A concentrations were between 150 μM and 800 μM. […] The binding parameters (K, ΔH°, ΔS°, and n) were determined using the single site binding model using the ITC add-in in Origin version 7 (MicroCal LLC). […]

[9] = biological target: T1, bovine pancreatic RNase A; test: ITC, 25 C; RNase A binding with 10 µM nickel (competitive)
Description: as §2, §3

[10] = biological target: T1, bovine pancreatic RNase A; test: competitive phage ELISA, soluble RNase A against coated RNase A, with and without 1 mM Zn2+/Co2+/Ni2+
[11] = biological target: T1, bovine pancreatic RNase A; test: ITC, 25 C, pH 7.4; no nickel; ITC at 25° C., no nickel
Description: as §2
(§4) ITC experiments were performed using a MicroCal VP-ITC (MicroCal, LLC, Northampton, Mass.). All experiments were performed at 25° C. Proteins were dialyzed against the desired experimental buffer, which included PBS (20 mM NaPhosphate, 150 mM NaCl pH 7.4), TBS (20 mM Tris-HCl, 150 mM NaCl pH 7.4) and TBS-E (20 mM Tris, 150 mM NaCl, 1 mM EDTA, pH 7.4). For direct titration of NiCl₂ into the VHHmetal variant, concentrations were 2 mM and 200 μM for NiCl₂ and VHH, respectively. Based on the observed binding constant, this corresponds to a “cvalue” of 6.7, which is within the commonly acceptable range for the accurate determination of binding thermodynamics (Tellinghuisen, 2008; Wiseman et al. 1989). For competitive titrations, nickel was included in TBS without EDTA at concentrations ranging from 0-10 mM. […] Extinction coefficients were determined using values determined by the methods described by Pace, et. al. (1995). […] The binding parameters (K, ΔH°, ΔS°, and n) were determined using the single site binding model using the ITC add-in in Origin version 7 (MicroCal LLC).

[12] = biological target: T1, bovine pancreatic RNase A; test: ITC, 25 C; RNase A binding with 100 µM nickel (competitive)
Description: as §2, §3

[13] = biological target: T1, bovine pancreatic RNase A; test: ITC, 25 C, no metal; reference is the wild-type anti-RNase A VHH
Description: as §2, §4

B1: wild-type anti-RNase A VHH (cAb-RN05) (VHH)
VHH: QVQLVESGGGLVQAGGSLRLSCAASGYAYTYIYMGWFRQAPGKEREGVAAMDSGGGGTLYADSVKGRFTISRDKGKNTVYLQMDSLKPEDTATYYCAAGGYELRDRTYGQWGQGTQVTVSS
notes: Camelid single-domain antibody; also called VHH-wt; wt-VHH
[1]
  IC50 (read off the curve): ~0.7 nM
[2]
  IC50 (read off the curve): ~1 nM
[3]
  -TΔS°: 1.9 kcal/mol
  Kd: 19 nM
  N: 1.01
  ΔG°: -10.5 kcal/mol
  ΔH°: -12.4 kcal/mol
[4]
  -TΔS°: 0.9 kcal/mol
  Kd: 16 nM
  N: 0.994
  ΔG°: -10.6 kcal/mol
  ΔH°: -10.7 kcal/mol

B2: VHH-metal (metal sensitive anti-RNase A VHH) (VHH)
VHH: QVQLVESGGGLVQAGGSLRLSCAASGYPHPYLHMGWFRQAPGKEREGVAAMDSGGGGTLYADSVKGRFTISRDKGKNTVYLQMDSLKPEDTATYYCAAGGYQLRDRTYGHWGQGTQVTVSS
notes: also called Metal-VHH
[1]
  IC50 (read off the curve): ~0.6 nM
[5]
  -TΔS°: 1.3 kcal/mol
  Kd: 34000 nM
  N: 1
  ΔG°: -6.07 kcal/mol
  ΔH°: -7.3 kcal/mol
[6]
  -TΔS°: 9 kcal/mol
  N: 0.96
  ΔG°: -9.3 kcal/mol
  ΔH°: -17.8 kcal/mol
[7]
  -TΔS°: 8 kcal/mol
  Kd: 160 nM
  N: 0.959
  ΔG°: -9.27 kcal/mol
  ΔH°: -17.2 kcal/mol
[8]
  Kd: 155 nM
[9]
  -TΔS°: 3.6 kcal/mol
  Kd: 219 nM
  N: 0.98
  ΔG°: -9.1 kcal/mol
  ΔH°: -12.7 kcal/mol
[10]
  fold change in IC50 with and without 1 mM metals: 1000 fold
[4]
  -TΔS°: 0.09 kcal/mol
  Kd: 5640 nM
  N: 1
  ΔG°: -7.13 kcal/mol
  ΔH°: -7.2 kcal/mol
[11]
  Kd: 157 nM
[12]
  -TΔS°: -1 kcal/mol
  Kd: 900 nM
  N: 0.98
  ΔG°: -8.27 kcal/mol
  ΔH°: -7 kcal/mol
[13]
  fold decrease in binding affinity against the wild-type VHH: ~8 fold
  ΔΔG° against the wild-type VHH: 1.2 kcal/mol
